# Measurements as given in US20260116983A1 (University of California, published 2026).
# B1: Antibody 11857 (antibody, human IgG1, V domains shown)
# VH: EVQLRQSGPELVKPGASVKISCKASGYTFTDYYMNWVKQSHEKSLEWIGNINPNNGGTDYNQKFKGKATLTVDKSSSTAYMELRSLTSEDSAVYYCARSYGSRFPYWGLGTLVTVSA
# VL: DIQMTQTTSSLSASLGDRVTISCRASQDITNYLSWYQQKPDGTVKLLIFYTAVLQSGFPLRFSGSGSGADYSLTISNLEQEDFATYFCQQGHTLPWTFGGGTKLEIK
# Tests used:
# [1] = target: T1, human uPAR (recombinant protein used in ELISA and BLI) (human, UniProt Q03405 23-305, limits assumed); test: BLI (Octet HTX)
# T1 construct: Whole entry named; also called biotinylated human uPAR
# Method: (§1) Kinetic constant ranges for Octet HTX were between 1 mM to 10 pM.
# [2] = target: T2, cynomolgus uPAR (recombinant) (cynomolgus monkey, UniProt Q9GK78 23-303, limits assumed); test: BLI (Octet HTX)
# T2 construct: also called cyno uPAR; AF647-cyno uPAR
# T2 sequence (looked up): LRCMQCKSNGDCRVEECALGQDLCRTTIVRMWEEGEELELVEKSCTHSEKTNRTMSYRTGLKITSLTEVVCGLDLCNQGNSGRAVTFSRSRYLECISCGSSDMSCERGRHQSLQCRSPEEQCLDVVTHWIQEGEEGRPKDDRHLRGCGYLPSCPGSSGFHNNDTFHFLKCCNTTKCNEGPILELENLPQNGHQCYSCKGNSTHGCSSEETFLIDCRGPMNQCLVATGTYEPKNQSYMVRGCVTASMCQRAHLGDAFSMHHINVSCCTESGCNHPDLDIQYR
# Method: as §1
# [3] = target: T3, human uPAR displayed on the surface of MDA-MB-231 cells (human, UniProt Q03405 23-305); test: cell-based or functional assay
# [4] = target: T2, cynomolgus uPAR (recombinant); test: ELISA, plate-coated cyno uPAR
# Method: (§2) To ensure the cross-reactivity of the 12 lead candidates was maintained with the Herceptin constant region, their binding to human and cyno uPAR was evaluated by ELISA (FIG. 3A).
# (§3) Nunc MaxiSorp™ flat-bottom 96-well plates were coated with human or cyno uPAR (3.19 μg/mL) at 4° C. overnight, and plates were washed with wash buffer and blocked with 5% non-fat dry milk. A standard log serial dilution of each antibody candidate was added to the uPAR-coated plates and incubated at 4° C. overnight. Plates were washed three times and incubated with 50 μL of HRP-conjugated goat anti-human (H+L) antibody (Biorad). After a two-hr incubation, plates were washed, and 100 μL of 1-Step™ Turbo TMB-ELISA Substrate Solution (Thermo Scientific) was added to each well. The reaction was quenched with 2M H₂SO₄ for 5 min at room temperature, and the optical density of each well was measured at 450 nm using a SpectraMax190 microplate reader.
# [5] = target: T1, human uPAR (recombinant protein used in …); test: ELISA, plate-coated human uPAR
# Method: as §2, §3
# [6] = target: T3, human uPAR displayed on the surface of …; test: flow cytometry on MDA-MB-231 cells
# [7] = target: T3, human uPAR displayed on the surface of …; test: flow cytometry (FACS) on MDA-MB-231 cells
# Description: Antibodies generated by immunizing animals with suPAR, which lacks the cell surface anchoring motif, can target protein regions that are not accessible for membrane-bound uPAR. […] Thus, FACS was applied to evaluate the cell-surface uPAR recognition by each antibody candidate under different concentrations of MDA-MB-231 cells, a triple-negative breast cancer cell line with high uPAR expression (FIG. 2).
# MDA-MB-231 cells were harvested with TrypleE and resuspended in FACS buffer (PBS+1% BSA) to 2×10⁶ cells/mL before being aliquoted to a 96-well plate (100 μL, 2×10⁵ cells/well). Cells were pelleted by centrifuging the microplate for 5 min at 400 RCF and resuspended in PBS containing serially diluted antibodies to a maximum concentration of 600 nM, followed by a 50 min incubation at 4° C. Cells were then washed three times with PBS and incubated with an AlexaFluor488-conjugated goat anti-human IgG for 50 min at 4° C. in the dark. Finally, cells were washed twice with FACS buffer and resuspended in 80 μL for FACS analysis in a Bio-rad S3e Cell Sorter.
# [8] = target: T1, human uPAR (recombinant protein used in …); test: BLI (Octet HTX); repeated row of the table
# Method: as §1
# [9] = target: T2, cynomolgus uPAR (recombinant); test: BLI (Octet HTX); repeated row of the table
# Method: as §1
# [10] = target: T3, human uPAR displayed on the surface of …; test: flow cytometry on MDA-MB-231 cells; repeated row of the table
# T1 sequence (Q03405 23-305 limits assumed): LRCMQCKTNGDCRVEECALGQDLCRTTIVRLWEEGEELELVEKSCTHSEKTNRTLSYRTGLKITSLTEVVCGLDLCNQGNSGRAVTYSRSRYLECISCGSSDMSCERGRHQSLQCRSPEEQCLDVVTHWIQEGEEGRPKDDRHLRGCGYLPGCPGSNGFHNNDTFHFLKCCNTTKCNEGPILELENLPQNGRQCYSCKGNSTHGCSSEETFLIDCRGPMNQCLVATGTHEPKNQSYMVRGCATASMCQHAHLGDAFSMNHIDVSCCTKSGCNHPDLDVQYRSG
# T3 sequence (Q03405 23-305): as the sequence (Q03405 23-305 limits assumed) above
binder,measurement,setting,value
B1,Kd,[1],6.37 nM
same,Kd,[2],8.48 nM
same,ADC Cytotoxicity EC50,[3],0.76 nM
same,ADC Cytotoxicity Max %,[3],35.2%
same,ADCC NK-92 EC50,[3],5.59 nM
same,ADCC NK-92 Max %,[3],27.2%
same,ADCC PBMCs EC50,[3],0.35 nM
same,ADCC PBMCs Max %,[3],52%
same,Adhesion blocking EC50,[3],940 nM
same,EC50,[4],0.18 nM
same,EC50,[5],0.52 nM
same,EC50,[6],0.545 µg/mL
same,Cellular recognition Max %,[7],1940%
same,EC50,[7],2.07 nM
same,Kd,[8],6.37 nM
same,Kd,[9],8.48 nM
same,EC50,[10],0.545 µg/mL
